“And” between values parts separate entries of the source, which are not always exact repeats. Equal values may be shown once.
B6: mature human BMP-11 (ligand, UniProt O95390 299-407, looked up)
chain: NLGLDCDEHSSESRCCRYPLTVDFEAFGWDWIIAPKRYKANYCSGQCEYMFMQKYPHTHLVQQANPRGSAGPCCTPTKMSPINMLYFNDKQQIIYGKIPGMVVDRCGCS
notes: mature; also called GDF-11; biotinylated BMP-11

What was measured:
[1] = target: T1, mature human GDF-8 (growth and differentiation factor-8) (human, UniProt O14793 267-375); assay: inhibition of bioGDF-8 binding to plate-coated ActRIIB-Fc, purified scFv titrated, DELFIA TRF
T1 construct: also called myostatin; mature GDF-8

[2] = target: T1, mature human GDF-8 (growth and …); assay: cell-based or functional assay
[3] = target: T1, mature human GDF-8 (growth and …); assay: inhibition of biotinylated GDF-8 (10 ng/ml) binding to plate-coated ActRIIB-Fc, ELISA, Myo29 preincubated with the ligand
mature human BMP-11 = target: B6; assay: inhibition of biotinylated BMP-11 (10 ng/ml) binding to plate-coated ActRIIB-Fc, ELISA, Myo29 preincubated with the ligand
[4] = target: T2, Recombinant ActRIIB-Fc chimera (R&D Systems, Cat. No. 339-RB/CF) (UniProt Q13705 19-134); assay: ELISA, biotinylated ligand titrated on plate-coated ActRIIB-Fc, streptavidin-HRP
T2 construct: Bought reagent, coated on the plate; also called ActRIIB receptor; Fc part of the bought chimera not given
T2 sequence (Q13705 19-134, change not shown): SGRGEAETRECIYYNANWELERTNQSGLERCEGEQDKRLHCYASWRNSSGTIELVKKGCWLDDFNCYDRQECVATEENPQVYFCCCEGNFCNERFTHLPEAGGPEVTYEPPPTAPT

B1: Myo29 scFv (scFv)
scFv: QVQLVQSGAEVKKPGASVKVSCKASGYTFTSYYMHWVRQAPGQGLEWMGIINPSGGSTSYAQKFQGRVTMTRDTSTSTVYMELSSLRSEDTAVYYCARDENWGFDPWGQGTLVTVSSGGGGSGGGGSGGGGSALSYELTQPPSVSVSPGQTATITCSGHALGDKFVSWYQQGSGQSPVLVIYDDTQRPSGIPGRFSGSNSGNTATLTISGTQAMDEADYFCQAWDSSFVFGGGTKVTVLGAAAHHHHHH
notes: tags from the vector are not described; also called scFv of Myo29
[1]
  IC50: 2.4 nM

B2: Myo28 scFv (scFv)
scFv: QVTLKESGGGLVQPGGSLRLSCAASGFTFSRYVINWVRQAPGKGLEWVSAISVTGGSTAYADSVRGRFTISRDNSKNTLYLQMNSLRAEDTAVYYCTKGQWERGSYYFDYWGRGTLVTVSSGGGGSGGGGSGGGGSAQSVLTQPPSVSGAPGQRVTISCTGSSSNIGDGYDVHWYQQLPGTAPKLLIYGNSHRPSGVPDRFSGSKSDTSASLAITGLQVEDEADYFCHSYDGSVSGWIFGGGTKLTVLGAAAHHHHHH
notes: tags from the vector are not described; also called scFv of Myo28
[1]
  IC50: 1.7 nM

B3: Myo29 human IgG1 antibody (antibody, V domains shown)
VH: QVQLVQSGAEVKKPGASVKVSCKASGYTFTSYYMHWVRQAPGQGLEWMGIINPSGGSTSYAQKFQGRVTMTRDTSTSTVYMELSSLRSEDTAVYYCARDENWGFDPWGQGTLVTVSS
VL: SYELTQPPSVSVSPGQTATITCSGHALGDKFVSWYQQGSGQSPVLVIYDDTQRPSGIPGRFSGSNSGNTATLTISGTQAMDEADYFCQAWDSSFVFGGGTKVTVLG
[2]
  pGL3(CAGA)12 reporter gene assay (RGA) in A204 cells, GDF-8 at 20 ng/ml, IC50: 15 ng/ml to 30 ng/ml (2×) and 0.1 nM to 0.2 nM (2×)
[3]
  IC50: 0.2 to 0.4 nM
Mature human BMP-11
  IC50: 0.2 to 0.4 nM

B4: Myo28 human IgG1 antibody (antibody, V domains shown)
VH: QVTLKESGGGLVQPGGSLRLSCAASGFTFSRYVINWVRQAPGKGLEWVSAISVTGGSTAYADSVRGRFTISRDNSKNTLYLQMNSLRAEDTAVYYCTKGQWERGSYYFDYWGRGTLVTVSS
VL: QSVLTQPPSVSGAPGQRVTISCTGSSSNIGDGYDVHWYQQLPGTAPKLLIYGNSHRPSGVPDRFSGSKSDTSASLAITGLQVEDEADYFCHSYDGSVSGWIFGGGTKLTVLG
[2]
  RGA and ActRIIB binding assays (not said which), IC50: 0.2 to 0.35 nM

B5: Myo22 scFv (scFv)
scFv: EVQLLESGGGLVQPGGSLRLSCAASGFTFSSYAMSWVRQAPGKGLEWVSAISGSGGSTYYADSVKGRFTISRDNSKNTLYLQMNSLRAEDTAVYYCERMGPCTGGSCYDTLGNWGRGTLVTVSSGGGGSGGGGSGGGGSAQSVLTQPPSVSGAPGQRVTISCTGSSSNIGAGYDVHWYQQLPGAAPKLLIRGNGNRPSGVPDRFSVSKSGYSASLAITGLQPADEGVYYCQSYDSSLSGSKVFGQGTKLTVLGAAAHHHHHH
notes: tags from the vector are not described; also called scFv of Myo22
[1]
  IC50: 60 nM

## B6
[4]
  EC50: 0.04 µg/mL

From patent US7261893 (Pfizer, dated 2007)
